{"source": "paper doi:10.1101/2023.11.28.568993", "about": "(bioRxiv, 2023)", "biological_target": "the molecule itself", "assay": "SEC", "data": [{"protein": "DNAJA2 (wild-type, class A J-domain protein) (natural protein, Alexa Fluor-488 label in the fluorescence anisotropy assays (site not stated)) not shown", "values": [{"measurement": "stoichiometry N", "result": 2}]}]}
